Test [1] relates to gamma secretase. Put plainly: Chimeric Notch (anti-CD19 scFv/tTA) receiver cell GFP reporter with CD19 sender cells, with or without DAPT. The format is cell-based, mouse. The following applies: 1 mM DAPT, in the presence of CD19 sender cells. From the text: DAPT is a gamma secretase inhibitor. The data are expressed as GFP^+“receiver” cells.
The subject of test [2] is K562 cells. Put plainly: Sensitivity of cancer cell lines to recombinant TRAIL. The format is cell-based. The following applies: 1 to 200 ng/mL, 24 hours. The method, then: (§1) The cells were then harvested and stained with the live/dead stain, SYTOX Blue (Thermo Scientific #S34857) and the fraction of dead cells was determined by flow cytometry on a BD LSR II.
Test [3] relates to HCT116 colon cancer cells. Described as above. The following applies: 1 to 200 ng/mL, 24 hours. The format is cell-based. The method, then:
as §1

On to `C[C@H](NC(=O)Cc1cc(F)cc(F)c1)C(=O)NC(C(=O)OC(C)(C)C)c1ccccc1` (some centres unmarked) [DAPT], for which the “GFP+ receiver cells” value in test [1] was “at control, untreated levels”.

B1: soluble TRAIL: an inducer of apoptosis and a cancer therapeutic (protein, UniProt P50591 39-281, looked up)
extracellular domain: TNELKQMQDKYSKSGIACFLKEDDSYWDPNDEESMNSPCWQVKWQLRQLVRKMILRTSEETISTVQEKQQNISPLVRERGPQRVAAHITGTRGRSNTLSSPNSKNEKALGRKINSWESSRSGHSFLSNLHLRNGELVIHEKGFYYIYSQTYFRFQEEIKENTKNDKQMVQYIYKYTSYPDPILLMKSARNSCWSKDAEYGLYSIYQGGIFELKENDRIFVSVTNEHLIDMDHEASFFGAFLVG
modifications: extracellular domain
notes: an inducer of apoptosis and a cancer therapeutic
Consider B1, for which the “induction of apoptosis in cancer cell line” value in test [2] is “does not induce apoptosis even at high doses”; in test [2] (listed as recombinant TRAIL), “insensitive to TRAIL treatment”. Also, the “killing of cancer cell line” value in test [3] is given as “effective at killing”; in test [3] (listed as recombinant TRAIL), “sensitive to low level TRAIL treatment”.

Source of the values: US10836808B2, “Binding-triggered transcriptional switches and methods of use thereof” (The Regents of the University of California, priority 2015, dated 2020).
